{"source": "IntAct's records for PubMed 14681217", "parents": {"B1": {"name": "Integrin beta-7 (Homo sapiens), P26010 (parent)", "chain": "MVALPMVLVLLLVLSRGESELDAKIPSTGDATEWRNPHLSMLGSCQPAPSCQKCILSHPSCAWCKQLNFTASGEAEARRCARREELLARGCPLEELEEPRGQQEVLQDQPLSQGARGEGATQLAPQRVRVTLRPGEPQQLQVRFLRAEGYPVDLYYLMDLSYSMKDDLERVRQLGHALLVRLQEVTHSVRIGFGSFVDKTVLPFVSTVPSKLRHPCPTRLERCQSPFSFHHVLSLTGDAQAFEREVGRQSVSGNLDSPEGGFDAILQAALCQEQIGWRNVSRLLVFTSDDTFHTAGDGKLGGIFMPSDGHCHLDSNGLYSRSTEFDYPSVGQVAQALSAANIQPIFAVTSAALPVYQELSKLIPKSAVGELSEDSSNVVQLIMDAYNSLSSTVTLEHSSLPPGVHISYESQCEGPEKREGKAEDRGQCNHVRINQTVTFWVSLQATHCLPEPHLLRLRALGFSEELIVELHTLCDCNCSDTQPQAPHCSDGQGHLQCGVCSCAPGRLGRLCECSVAELSSPDLESGCRAPNGTGPLCSGKGHCQCGRCSCSGQSSGHLCECDDASCERHEGILCGGFGRCQCGVCHCHANRTGRACECSGDMDSCISPEGGLCSGHGRCKCNRCQCLDGYYGALCDQCPGCKTPCERHRDCAECGAFRTGPLATNCSTACAHTNVTLALAPILDDGWCKERTLDNQLFFFLVEDDARGTVVLRVRPQEKGADHTQAIVLGCVGGIVAVGLGLVLAYRLSVEIYDRREYSRFEKEQQQLNWKQDSNPLYKSAITTTINPRFQEADSPTL"}}, "data": [{"variants_of": "B1", "details": "with ita4_human ITGA4, P13612", "values": [{"variant": "G730I", "effect of a mutation on the interaction": "decreasing interaction"}, {"variant": "G734I", "effect of a mutation on the interaction": "decreasing interaction"}]}]}
